Measured values from publication PMC6107290 (PLoS Pathogens, 2018).

Molecular target: the molecule itself
Test: cryo-EM structure

B1: SARS-CoV S glycoprotein S2 subunit (from trypsin cleavage of the S ectodomain) (domain or fragment)
chain: STSQKSIVAYTMSLGADSSIAYSNNTIAIPTNFSISITTEVMPVSMAKTSVDCNMYICGDSTECANLLLQYGSFCTQLNRALSGIAAEQDRNTREVFAQVKQMYKTPTLKYFGGFNFSQILPDPLKPTKRSFIEDLLFNKVTLADAGFMKQYGECLGDINARDLICAQKFNGLTVLPPLLTDDMIAAYTAALVSGTATAGWTFGAGAALQIPFAMQMAYRFNGIGVTQNVLYENQKQIANQFNKAISQIQESLTTTSTALGKLQDVVNQNAQALNTLVKQLSSNFGAISSVLNDILSRLDKVEAEVQIDRLITGRLQSLQTYVTQQLIRAAEIRASANLAATKMSECVLGQSKRVDFCGKGYHLMSFPQAAPHGVVFLHVTYVPSQERNFTTAPAICHEGKAYFPREGVFVFNGTSWFITQRNFFSPQIITTDNTFVSGNCDVVIGIINNTVYDPLQPELDSFKEELDKYFKNHTSPDVDLGDISGINASVVNIQKEIDRLNEVAKNLNESLIDLQELGKYEQYIKWP
- stoichiometry N: 3
